Laboratory results as given in paper PMC4096160 (Nature structural & molecular biology, 2013).
Each block holds one molecule with its values, some of them ahead of it.

Tests used:
[1] = target: hSTAU1^55(R)Δ(SSM-‘RBD’5)-FLAG (human); experiment: co-IP
hSTAU1^55-HA3 (human) = hSTAU1^55-HA3 (human) (UniProt O95793); experiment: co-IP
AUC = target: the molecule itself; experiment: AUC
SEC = target: the molecule itself; experiment: SEC

Chain of hSTAU1^55-HA3 (human) (O95793 82-577): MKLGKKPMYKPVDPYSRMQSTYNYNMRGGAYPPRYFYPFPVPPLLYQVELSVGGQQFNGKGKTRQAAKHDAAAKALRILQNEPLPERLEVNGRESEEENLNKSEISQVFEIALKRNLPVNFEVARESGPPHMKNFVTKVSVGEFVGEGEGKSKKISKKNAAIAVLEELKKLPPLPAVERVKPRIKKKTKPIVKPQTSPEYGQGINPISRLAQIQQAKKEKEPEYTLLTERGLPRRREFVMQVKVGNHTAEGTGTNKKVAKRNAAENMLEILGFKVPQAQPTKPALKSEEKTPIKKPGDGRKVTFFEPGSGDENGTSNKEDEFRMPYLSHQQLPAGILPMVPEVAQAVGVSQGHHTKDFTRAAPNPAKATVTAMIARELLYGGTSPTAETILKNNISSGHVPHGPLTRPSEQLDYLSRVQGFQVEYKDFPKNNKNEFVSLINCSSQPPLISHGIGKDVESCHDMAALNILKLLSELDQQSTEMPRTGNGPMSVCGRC

level of co-immunoprecipitation as percent of that with WT or Δ(C-Term) [1]: 10%
Molecule: hSTAU1^55-HA3 (from UniProt O95793-2 1-496) (natural protein)

level of co-immunoprecipitation as percent of that of WT or Δ(C-Term) (hSTAU1^55-HA3 (human)): 10%
Molecule: hSTAU1^55(R)Δ(SSM-‘RBD’5)-FLAG (domain or fragment)

B1: hSTAU1 SSM-‘RBD’5 (hSTAU1 amino acids 367–476) (domain or fragment)
chain: KATVTAMIARELLYGGTSPTAETILKNNISSGHVPHGPLTRPSEQLDYLSRVQGFQVEYKDFPKNNKNEFVSLINCSSQPPLISHGIGKDVESCHDMAALNILKLLSELD
Kd (AUC): 79 ± 9 µM | stoichiometry N (SEC): 2

level of co-immunoprecipitation as percent of that with WT or Δ(C-Term) [1]: 10%
B2: cellular hUPF1 (natural protein)
chain: MSVEAYGPSSQTLTFLDTEEAELLGADTQGSEFEFTDFTLPSQTQTPPGGPGGPGGGGAGGPGGAGAGAAAGQLDAQVGPEGILQNGAVDDSVAKTSQLLAELNFEEDEEDTYYTKDLPIHACSYCGIHDPACVVYCNTSKKWFCNGRGNTSGSHIVNHLVRAKCKEVTLHKDGPLGETVLECYNCGCRNVFLLGFIPAKADSVVVLLCRQPCASQSSLKDINWDSSQWQPLIQDRCFLSWLVKIPSEQEQLRARQITAQQINKLEELWKENPSATLEDLEKPGVDEEPQHVLLRYEDAYQYQNIFGPLVKLEADYDKKLKESQTQDNITVRWDLGLNKKRIAYFTLPKTDSGNEDLVIIWLRDMRLMQGDEICLRYKGDLAPLWKGIGHVIKVPDNYGDEIAIELRSSVGAPVEVTHNFQVDFVWKSTSFDRMQSALKTFAVDETSVSGYIYHKLLGHEVEDVIIKCQLPKRFTAQGLPDLNHSQVYAVKTVLQRPLSLIQGPPGTGKTVTSATIVYHLARQGNGPVLVCAPSNIAVDQLTEKIHQTGLKVVRLCAKSREAIDSPVSFLALHNQIRNMDSMPELQKLQQLKDETGELSSADEKRYRALKRTAERELLMNADVICCTCVGAGDPRLAKMQFRSILIDESTQATEPECMVPVVLGAKQLILVGDHCQLGPVVMCKKAAKAGLSQSLFERLVVLGIRPIRLQVQYRMHPALSAFPSNIFYEGSLQNGVTAADRVKKGFDFQWPQPDKPMFFYVTQGQEEIASSGTSYLNRTEAANVEKITTKLLKAGAKPDQIGIITPYEGQRSYLVQYMQFSGSLHTKLYQEVEIASVDAFQGREKDFIILSCVRANEHQGIGFLNDPRRLNVALTRARYGVIIVGNPKALSKQPLWNHLLNYYKEQKVLVEGPLNNLRESLMQFSKPRKLVNTINPGARFMTTAMYDAREAIIPGSVYDRSSQGRPSSMYFQTHDQIGMISAGPSHVAAMNIPIPFNLVMPPMPPPGYFGQANGPAAGRGTPKGKTGRGGRQKNRFGLPGPSQTNLPNSQASQDVASQPFSQGALTQGYISMSQPSQMSQPGLSQPELSQDSYLGDEFKSQIDVALSQDSTYQGERAYQHGGVTGLSQY

B3: hSTAU1-‘RBD’2-RBD3 (amino acids 43–173) (domain or fragment)
chain: PLLYQVELSVGGQQFNGKGKTRQAAKHDAAAKALRILQNEPLPERLEVNGRESEEENLNKSEISQVFEIALKRNLPVNFEVARESGPPHMKNFVTKVSVGEFVGEGEGKSKKISKKNAAIAVLEELKKLPP
stoichiometry N (SEC): 2
